Test results: patent US20020168358A1, “Treatment of T-cell mediated diseases” (priority 2001, published 2002)

T1: CCR7 (Homo sapiens, UniProt P32248)
T1 construct: The cells were then disrupted with a Polytron homogenizer and centrifuged at 30,000× g for 10 min; endogenous in cells; host or cells: HUT-78 cells (membrane pellet)
T1 sequence (P32248 25-378): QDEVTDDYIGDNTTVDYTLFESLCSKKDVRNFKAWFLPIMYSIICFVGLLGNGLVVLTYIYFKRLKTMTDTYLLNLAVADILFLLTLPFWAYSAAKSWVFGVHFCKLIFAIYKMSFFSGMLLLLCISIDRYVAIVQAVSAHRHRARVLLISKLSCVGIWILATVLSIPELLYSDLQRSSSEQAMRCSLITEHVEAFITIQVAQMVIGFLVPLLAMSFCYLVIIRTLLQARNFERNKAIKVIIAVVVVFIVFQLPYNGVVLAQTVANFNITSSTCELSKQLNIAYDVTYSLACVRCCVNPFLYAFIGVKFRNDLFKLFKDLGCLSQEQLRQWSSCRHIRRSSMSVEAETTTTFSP

B1: SLC: secondary lymphoid organ chemokine, ligand of the CCR7 receptor (protein, UniProt O00585 24-134, looked up)
C-C motif chemokine 21: SDGGAQDCCLKYSQRKIPAKVVRSYRKQEPSLGCSIPAILFLPRKRSQAELCADPKELWVQQLMQHLDKTPSPQKPAQGCRKDRGASKTGKKGKGSKGCKRTERSQTPKGP
B2: MIP-3β: chemokine, macrophage inflammatory protein-3b, ligand of the CCR7 receptor (protein, UniProt Q99731 22-98, looked up)
C-C motif chemokine 19: GTNDAEDCCLSVTQKPIPGYIVRNFHYLLIKDGCRVPAVVFTTLRGRQLCAPPDQPWVERIIQRLQRTSAKMKRRSS
B3: RANTES: chemokine tested for comparison in T cell chemotaxis (protein, UniProt P13501 24-91, looked up)
C-C motif chemokine 5: SPYSSDTTPCCFAYIARPLPRAHIKEYFYTSGKCSNPAVVFVTRKNRQVCANPEKKWVREYINSLEMS
B4: MIP-1α: chemokine tested for comparison in T cell chemotaxis (protein, UniProt P10147 24-92, looked up)
C-C motif chemokine 3: SLAADTPTACCFSYTSRQIPQNFIADYFETSSQCSKPGVIFLTKRSRQVCADPSEEWVQKYVSDLELSA
B5: MIP-1β: chemokine tested for comparison in T cell chemotaxis (protein, UniProt P13236 24-92, looked up)
C-C motif chemokine 4: APMGSDPPTACCFSYTARKLPRNFVVDYYETSSLCSQPAVVFQTKRSKQVCADPSESWVQEYVYDLELN
B6: Tarc: chemokine tested for comparison in T cell chemotaxis (protein, UniProt Q92583 24-94, looked up)
C-C motif chemokine 17: ARGTNVGRECCLEYFKGAIPLRKLKTWYQTSEDCSRDAIVFVTVQGRAICSDPNNKRVKNAVKYLQSLERS

target: T1, CCR7; experiment: Binding assay: 125I-MIP-3β binding to HUT-78 cell membranes (scintillation proximity); conditions: binding assay of Example 1, HUT-78 membranes, read-out: IC50, inhibition of binding of MIP-3β to CCR7
Protocol: HUT-78 cells were cultured in RPMI media with 10% FBS, pen-strep (100 u/ml), L-glutamine (2 mM), HEPES (10 mM) and non-essential amino acids (0.1 mM). The cells were collected by centrifugation at 170× g for 5 min and resuspended to 50×10^ 6 cells/ml in Dulbeccoco's Ca^2+ and Mg^2+ free media containing 8 mg/l aprotinin at 4° C. The cells were then disrupted with a Polytron homogenizer and centrifuged at 30,000× g for 10 min. The pellet was washed 6 times and stored at −80° C.
The binding assay was run in a buffer containing HEPES (50 mM), CaCl2 (1 mM), MgCl2 (5 mM), NaCl (150 mM) and BSA (0.5 mg/ml), pH 7.2. The pellet was resuspended to 8×10^6 cell equivalents/ml and 50 μl was added to microtiter plate wells containing 130 μl of buffer with various concentrations of compounds, and 0.5 mg PEI-treated wheatgerm agglutinin-coated scintillation proximity beads (Amersham). The binding was initiated by the addition of 20 μl of 600 pM ^125I-MIP-3β (New England Nuclear). The microtiter plate was mixed and then the beads were allowed to settle overnight before counting in a Microbeta plus liquid scintillation counter (Wallac).

Molecule	IC50 [nM]
O=S1(=O)COc2cc(NCCCc3cnco3)ccc2N1 [Example 3]	1500
Cc1cc(C)c2c(=O)n(CC(O)CN(C)CC3OCCCO3)sc2c1 (stereo not drawn) [Example 4]	2200

tested on: Hut-78 cells; experiment: In vitro chemotaxis of Hut-78 cells; type: cell-based; conditions: FIG. 2

Molecule	chemoattractant activity for Hut-78 cells
B1	potent chemoattractants
B2	potent chemoattractants

tested on: PHA-activated human T cells; experiment: In vitro chemotaxis of T cells (48-well Boyden chamber); type: cell-based; conditions: FIG. 3
Protocol: Lymphocyte and PHA blast chemotaxis to appropriate chemokine was measured using a 48-well Boyden chamber (Neuro Probe Inc., Cabin John, Md.). Agonists were diluted in RPMI media (BioWhittaker, Walkersville, Md.) containing 0.1% bovine serum albumin (Invitrogen, Carlsbad, Calif.) and added to the bottom wells of the chemotaxis chamber. Peripheral mononuclear blood cells were resuspended in RPMI/BSA media at a concentration of 2.5×10^6 cells per ml. Fifty μl of this cell suspension was then added to the upper chamber. A 5 μm PVP-free polycarbonate filter, coated on the bottom with 10 microgram/ml of human type IV collagen (Neuro Probe Inc.), was used to separate the wells of the chamber Chambers were incubated for 60 minutes in a 5% CO2-humidified atmosphere at 37° C. After the incubation period, the filters were removed, the top side was scraped to remove non-migrating cells, and the filters were stained with Diff-Quik stain (Dade Behring AG, Dudingen, Switzerland). The number of PMBC cells migrating was counted by light microscopy. The mean of three high powered fields was then determined. The number of migrating PMBC cells was calculated by subtracting […].

Molecule	chemoattractant activity for PHA-activated human T cells
B1	potent chemoattractants
B2	potent chemoattractants

same assay, conditions: Hut 78 and primary T cells

Molecule	effect on T cell chemotaxis compared with other chemokines
IP-10: chemokine tested for comparison in T cell chemotaxis	minimal effects
MCP-1: chemokine tested for comparison in T cell chemotaxis	minimal effects
MCP-3: chemokine tested for comparison in T cell chemotaxis	minimal effects
B3	minimal effects
B1	most potent T cell chemotactic agents
B4	minimal effects
B2	most potent T cell chemotactic agents
B5	minimal effects
B6	minimal effects
